According to patent publication US11746139B2, “IL-7Rαγc binding compounds” (MEDIKINE, INC., priority 2020, dated 2023):

How the values were obtained:
[1] = molecular target: T1, IL-7Rα subunit (Homo sapiens, UniProt P16871); test: Competition of IL-7Rα ligands with IL-7 for binding to IL-7Rα
[2] = molecular target: T1, IL-7Rα subunit; test: Phage competitive binding assay characterizing the IL-7Rα ligand binding site; conditions: for Competition with Phage Clone SEQ ID NO: 5 (Family 1) for binding to the IL-7Rα subunit: phage clone 5, immobilized IL-7Rα ECD; for Competition with Phage Clone SEQ ID NO: 43 (Family 3A) for binding to the IL-7Rα subunit: phage clone 43, immobilized IL-7Rα ECD; for Competition with Phage Clone SEQ ID NO: 104 (Family 3B) for binding to the IL-7Rα subunit: phage clone 104, immobilized IL-7Rα ECD; for Competition with Phage Clone SEQ ID NO: 313 (Family 2) for binding to the IL-7Rα subunit: phage clone 313, immobilized IL-7Rα ECD
[3] = molecular target: T2, Rγc subunit (Homo sapiens, UniProt P31785); test: Alanine scan competition binding assay, binding to Rγc subunit; conditions: alanine scan peptides
T2 construct: purchased ACRObiosystems, Inc. ILG-H5256

[4] = molecular target: IL-7Rα (Homo sapiens, UniProt P16871); test: Competition binding ELISA with bn407::NA-HRP precomplex; conditions: bn407:NA-HRP 10 nM final; read-out: Competitive Binding ELISA bn407:NA-HRP (10 nMf) IC50 M
Chain of IL-7Rα (P16871 21-236): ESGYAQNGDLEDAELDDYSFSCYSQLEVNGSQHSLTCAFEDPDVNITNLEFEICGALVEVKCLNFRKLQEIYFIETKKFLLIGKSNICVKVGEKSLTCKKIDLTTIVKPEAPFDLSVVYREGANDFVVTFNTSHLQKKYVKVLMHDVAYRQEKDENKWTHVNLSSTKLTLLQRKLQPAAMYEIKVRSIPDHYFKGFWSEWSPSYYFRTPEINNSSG

T2 sequence (P31785 23-254): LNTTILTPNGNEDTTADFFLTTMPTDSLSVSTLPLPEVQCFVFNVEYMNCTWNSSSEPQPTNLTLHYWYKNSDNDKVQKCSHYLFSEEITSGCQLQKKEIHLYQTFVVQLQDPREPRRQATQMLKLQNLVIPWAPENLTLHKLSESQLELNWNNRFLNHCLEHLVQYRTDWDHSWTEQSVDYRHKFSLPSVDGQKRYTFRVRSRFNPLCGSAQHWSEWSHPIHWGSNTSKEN
T1 sequence (P16871 21-236): as the sequence (P16871 21-236) above

G G V P W C T L D P G S L Q C A W F [SEQ ID NO: 313]
Competitive binding with IL-7 binding to IL-7Rα [1]: do not bind competitively
Competition with Phage Clone SEQ ID NO: 5 (Family 1) for binding to the IL-7Rα subunit [2]: + (IL-7Rα ligand competes with phage binding.)
Competition with Phage Clone SEQ ID NO: 43 (Family 3A) for binding to the IL-7Rα subunit [2]: + (IL-7Rα ligand competes with phage binding.)
Competition with Phage Clone SEQ ID NO: 104 (Family 3B) for binding to the IL-7Rα subunit [2]: + (IL-7Rα ligand competes with phage binding.)
Competition with Phage Clone SEQ ID NO: 313 (Family 2) for binding to the IL-7Rα subunit [2]: + (IL-7Rα ligand competes with phage binding.)

QCVHWDLDTLFGCIREQLEL [SEQ ID NO: 146]
Competitive binding with IL-7 binding to IL-7Rα [1]: do not bind competitively
Competition with Phage Clone SEQ ID NO: 5 (Family 1) for binding to the IL-7Rα subunit [2]: +^1 (IL-7Rα ligand competes with phage binding.)
Competition with Phage Clone SEQ ID NO: 43 (Family 3A) for binding to the IL-7Rα subunit [2]: + (IL-7Rα ligand competes with phage binding.)
Competition with Phage Clone SEQ ID NO: 104 (Family 3B) for binding to the IL-7Rα subunit [2]: + (IL-7Rα ligand competes with phage binding.)
Competition with Phage Clone SEQ ID NO: 313 (Family 2) for binding to the IL-7Rα subunit [2]: + (IL-7Rα ligand competes with phage binding.)
Competition with Phage Clone SEQ ID NO: 965 (N/A) for binding to the IL-7Rα subunit ([2]; phage clone 965, immobilized IL-7Rα ECD): 0^2

CC(C)C[C@@H]1NC(=O)[C@H](CCC(=O)O)NC(=O)[C@H](C(C)C)NC(=O)CNC(=O)[C@H](C)NC(=O)[C@H](Cc2c[nH]c3ccccc23)NC(=O)[C@H](CC(=O)O)NC(=O)[C@H](CCC(N)=O)NC(=O)[C@@H](NC(=O)[C@@H](NC(=O)[C@@H](NC(=O)CNC(=O)CN)C(C)C)C(C)C)CSSC[C@@H](C(=O)N[C@@H](Cc2c[nH]c3ccccc23)C(=O)N[C@@H](CCC(N)=O)C(=O)NCC(=O)NCC(=O)O)NC1=O [SEQ ID NO: 1035, G G V V C Q D W A G V E L C W Q G G]
IC50 [3]: < 50 nM

V Y C A E I G E Y R V C R Q [SEQ ID NO: 43]
Competitive binding with IL-7 binding to IL-7Rα [1]: do not bind competitively
Competition with Phage Clone SEQ ID NO: 5 (Family 1) for binding to the IL-7Rα subunit [2]: + (IL-7Rα ligand competes with phage binding.)
Competition with Phage Clone SEQ ID NO: 43 (Family 3A) for binding to the IL-7Rα subunit [2]: + (IL-7Rα ligand competes with phage binding.)
Competition with Phage Clone SEQ ID NO: 104 (Family 3B) for binding to the IL-7Rα subunit [2]: + (IL-7Rα ligand competes with phage binding.)
Competition with Phage Clone SEQ ID NO: 313 (Family 2) for binding to the IL-7Rα subunit [2]: + (IL-7Rα ligand competes with phage binding.)

CC(C)C[C@@H]1NC(=O)[C@H](CCC(=O)O)NC(=O)[C@H](C(C)C)NC(=O)CNC(=O)[C@H](CCC(=O)O)NC(=O)[C@H](C)NC(=O)[C@H](CC(=O)O)NC(=O)[C@H](CCC(N)=O)NC(=O)[C@@H](NC(=O)[C@@H](NC(=O)[C@@H](NC(=O)CNC(=O)CN)C(C)C)C(C)C)CSSC[C@@H](C(=O)N[C@@H](Cc2c[nH]c3ccccc23)C(=O)N[C@@H](CCC(N)=O)C(=O)NCC(=O)NCC(=O)O)NC1=O [SEQ ID NO: 1034, G G V V C Q D A E G V E L C W Q G G]
IC50 [3]: < 2000 nM

Q C I H W D I E T L L S C V [SEQ ID NO: 5]
Competitive binding with IL-7 binding to IL-7Rα [1]: do not bind competitively
Competition with Phage Clone SEQ ID NO: 5 (Family 1) for binding to the IL-7Rα subunit [2]: + (IL-7Rα ligand competes with phage binding.)
Competition with Phage Clone SEQ ID NO: 43 (Family 3A) for binding to the IL-7Rα subunit [2]: + (IL-7Rα ligand competes with phage binding.)
Competition with Phage Clone SEQ ID NO: 104 (Family 3B) for binding to the IL-7Rα subunit [2]: + (IL-7Rα ligand competes with phage binding.)
Competition with Phage Clone SEQ ID NO: 313 (Family 2) for binding to the IL-7Rα subunit [2]: + (IL-7Rα ligand competes with phage binding.)

Y M A C S S G L S L C R L S [SEQ ID NO: 104]
Competitive binding with IL-7 binding to IL-7Rα [1]: do not bind competitively
Competition with Phage Clone SEQ ID NO: 5 (Family 1) for binding to the IL-7Rα subunit [2]: + (IL-7Rα ligand competes with phage binding.)
Competition with Phage Clone SEQ ID NO: 43 (Family 3A) for binding to the IL-7Rα subunit [2]: + (IL-7Rα ligand competes with phage binding.)
Competition with Phage Clone SEQ ID NO: 104 (Family 3B) for binding to the IL-7Rα subunit [2]: + (IL-7Rα ligand competes with phage binding.)
Competition with Phage Clone SEQ ID NO: 313 (Family 2) for binding to the IL-7Rα subunit [2]: + (IL-7Rα ligand competes with phage binding.)

CC(C)C[C@@H]1NC(=O)[C@H](C)NC(=O)[C@H](C(C)C)NC(=O)CNC(=O)[C@H](CCC(=O)O)NC(=O)[C@H](Cc2c[nH]c3ccccc23)NC(=O)[C@H](CC(=O)O)NC(=O)[C@H](CCC(N)=O)NC(=O)[C@@H](NC(=O)[C@@H](NC(=O)[C@@H](NC(=O)CNC(=O)CN)C(C)C)C(C)C)CSSC[C@@H](C(=O)N[C@@H](Cc2c[nH]c3ccccc23)C(=O)N[C@@H](CCC(N)=O)C(=O)NCC(=O)NCC(=O)O)NC1=O [SEQ ID NO: 1038, G G V V C Q D W E G V A L C W Q G G]
IC50 [3]: < 50 nM

CC(C)[C@@H]1NC(=O)CNC(=O)[C@H](CCC(=O)O)NC(=O)[C@H](Cc2c[nH]c3ccccc23)NC(=O)[C@H](CC(=O)O)NC(=O)[C@H](CCC(N)=O)NC(=O)[C@@H](NC(=O)[C@@H](NC(=O)[C@@H](NC(=O)CNC(=O)CN)C(C)C)C(C)C)CSSC[C@@H](C(=O)N[C@@H](Cc2c[nH]c3ccccc23)C(=O)N[C@@H](CCC(N)=O)C(=O)NCC(=O)NCC(=O)O)NC(=O)[C@H](C)NC(=O)[C@H](CCC(=O)O)NC1=O [SEQ ID NO: 1039, G G V V C Q D W E G V E A C W Q G G]
IC50 [3]: < 5000 nM

CC(C)C[C@@H]1NC(=O)[C@H](CCC(=O)O)NC(=O)[C@H](C(C)C)NC(=O)CNC(=O)[C@H](CCC(=O)O)NC(=O)[C@H](Cc2c[nH]c3ccccc23)NC(=O)[C@H](CC(=O)O)NC(=O)[C@H](CCC(N)=O)NC(=O)[C@@H](NC(=O)[C@@H](NC(=O)[C@@H](NC(=O)CNC(=O)CN)C(C)C)C(C)C)CSSC[C@@H](C(=O)N[C@@H](Cc2c[nH]c3ccccc23)C(=O)N[C@@H](CCC(N)=O)C(=O)NCC(=O)NCC(=O)O)NC1=O [SEQ ID NO: 1031, G G V V C Q D W E G V E L C W Q G G]
IC50 [3]: < 50 nM

CC(C)C[C@@H]1NC(=O)[C@H](CCC(=O)O)NC(=O)[C@H](C)NC(=O)CNC(=O)[C@H](CCC(=O)O)NC(=O)[C@H](Cc2c[nH]c3ccccc23)NC(=O)[C@H](CC(=O)O)NC(=O)[C@H](CCC(N)=O)NC(=O)[C@@H](NC(=O)[C@@H](NC(=O)[C@@H](NC(=O)CNC(=O)CN)C(C)C)C(C)C)CSSC[C@@H](C(=O)N[C@@H](Cc2c[nH]c3ccccc23)C(=O)N[C@@H](CCC(N)=O)C(=O)NCC(=O)NCC(=O)O)NC1=O [SEQ ID NO: 1037, G G V V C Q D W E G A E L C W Q G G]
IC50 [3]: < 2000 nM

CC(C)C[C@@H]1NC(=O)[C@H](CCC(=O)O)NC(=O)[C@H](C(C)C)NC(=O)CNC(=O)[C@H](CCC(=O)O)NC(=O)[C@H](Cc2c[nH]c3ccccc23)NC(=O)[C@H](CC(=O)O)NC(=O)[C@H](C)NC(=O)[C@@H](NC(=O)[C@@H](NC(=O)[C@@H](NC(=O)CNC(=O)CN)C(C)C)C(C)C)CSSC[C@@H](C(=O)N[C@@H](Cc2c[nH]c3ccccc23)C(=O)N[C@@H](CCC(N)=O)C(=O)NCC(=O)NCC(=O)O)NC1=O [SEQ ID NO: 1032, G G V V C A D W E G V E L C W Q G G]
IC50 [3]: < 100 nM

CC[C@H](C)[C@H](N)C(=O)N1CCC[C@H]1C(=O)N[C@@H](Cc1c[nH]c2ccccc12)C(=O)N[C@H]1CSSC[C@@H](C(=O)N[C@@H](C)C(=O)N[C@@H](Cc2c[nH]cn2)C(=O)N[C@@H](CC(C)C)C(=O)N[C@@H](CCCNC(=N)N)C(=O)N[C@@H](CCC(N)=O)C(=O)N[C@@H](CCSC)C(=O)NCC(=O)NCC(=O)O)NC(=O)[C@H](CCC(N)=O)NC(=O)[C@H](CC(C)C)NC(=O)CNC(=O)CNC(=O)[C@@H]2CCCN2C(=O)[C@H](CC(=O)O)NC(=O)[C@H](CC(C)C)NC(=O)[C@H]([C@@H](C)O)NC1=O [SEQ ID NO: 424, I P W C T L D P G G L Q C A H L R Q M]
IC50 [4]: 1520 nM

CC[C@H](C)[C@H](N)C(=O)N1CCC[C@H]1C(=O)N[C@@H](Cc1c[nH]c2ccccc12)C(=O)N[C@H]1CSSC[C@@H](C(=O)N[C@@H](C)C(=O)N[C@@H](C)C(=O)N[C@@H](CC(C)C)C(=O)N[C@@H](CCCNC(=N)N)C(=O)N[C@@H](CCC(N)=O)C(=O)N[C@@H](CCSC)C(=O)NCC(=O)NCC(=O)O)NC(=O)[C@H](CCC(N)=O)NC(=O)[C@H](CC(C)C)NC(=O)CNC(=O)CNC(=O)[C@@H]2CCCN2C(=O)[C@H](CC(=O)O)NC(=O)[C@H](CC(C)C)NC(=O)[C@H]([C@@H](C)O)NC1=O [SEQ ID NO: 421, I P W C T L D P G G L Q C A A L R Q M]
IC50 [4]: 7580 nM

CC[C@H](C)[C@H](N)C(=O)N1CCC[C@H]1C(=O)N[C@@H](Cc1c[nH]c2ccccc12)C(=O)N[C@H]1CSSC[C@@H](C(=O)N[C@@H](C)C(=O)N[C@@H](Cc2c[nH]c3ccccc23)C(=O)N[C@H](C(=O)N[C@@H](CCCNC(=N)N)C(=O)N[C@@H](CCC(N)=O)C(=O)N[C@@H](CCSC)C(=O)NCC(=O)NCC(=O)O)C(C)C)NC(=O)[C@H](CCC(N)=O)NC(=O)[C@H](CC(C)C)NC(=O)CNC(=O)CNC(=O)[C@@H]2CCCN2C(=O)[C@H](CC(=O)O)NC(=O)[C@H](CC(C)C)NC(=O)[C@H]([C@@H](C)O)NC1=O [SEQ ID NO: 427, I P W C T L D P G G L Q C A W V R Q M]
IC50 [4]: 411 nM

CC(C)C[C@@H]1NC(=O)[C@H](CCC(=O)O)NC(=O)[C@H](C(C)C)NC(=O)CNC(=O)[C@H](CCC(=O)O)NC(=O)[C@H](Cc2c[nH]c3ccccc23)NC(=O)[C@H](C)NC(=O)[C@H](CCC(N)=O)NC(=O)[C@@H](NC(=O)[C@@H](NC(=O)[C@@H](NC(=O)CNC(=O)CN)C(C)C)C(C)C)CSSC[C@@H](C(=O)N[C@@H](Cc2c[nH]c3ccccc23)C(=O)N[C@@H](CCC(N)=O)C(=O)NCC(=O)NCC(=O)O)NC1=O [SEQ ID NO: 1033, G G V V C Q A W E G V E L C W Q G G]
IC50 [3]: < 50 nM

CC(C)C[C@@H]1NC(=O)[C@H](CCC(=O)O)NC(=O)[C@H](C(C)C)NC(=O)[C@H](C)NC(=O)[C@H](CCC(=O)O)NC(=O)[C@H](Cc2c[nH]c3ccccc23)NC(=O)[C@H](CC(=O)O)NC(=O)[C@H](CCC(N)=O)NC(=O)[C@@H](NC(=O)[C@@H](NC(=O)[C@@H](NC(=O)CNC(=O)CN)C(C)C)C(C)C)CSSC[C@@H](C(=O)N[C@@H](Cc2c[nH]c3ccccc23)C(=O)N[C@@H](CCC(N)=O)C(=O)NCC(=O)NCC(=O)O)NC1=O [SEQ ID NO: 1036, G G V V C Q D W E A V E L C W Q G G]
IC50 [3]: < 100 nM
